Variants at the floor of the assay were thinned out.
Assays:
biotinyl-Phe-oxazolone = test: self-aminoacylation, catalytic enhancement (BFO) (fold over background); higher = more active; k-Seq, kA / k0A0; sequences stand for … in GGGAAUGGAUCCACAUCUACGAAUUC…UUCACUGCAGACUUGACGAAGCUG
In short: (§1)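 Catalytic enhancement equals the median kA over the uncatalyzed rate, the latter read from the low-activity peak of a bimodal Gaussian fit. Values of kA came from fitting each sequence's fraction reacted to a pseudo-first-order model, with 1000 bootstraps. Reacted RNA was captured with streptavidin and quantified by triplicate qPCR and Illumina sequencing after 90 minutes at room temperature with 2–1250 μM biotinyl-aminoacyl-oxazolone and 0.43 μM mutagenized RNA pools bearing a 21-nt variable region.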

biotinyl-Ile-oxazolone = test: self-aminoacylation, catalytic enhancement (BIO) (fold over background); higher = more active; k-Seq, kA / k0A0; sequences stand for … in GGGAAUGGAUCCACAUCUACGAAUUC…UUCACUGCAGACUUGACGAAGCUG
In short: as §1

biotinyl-Met-oxazolone = test: self-aminoacylation, catalytic enhancement (BMO) (fold over background); higher = more active; k-Seq, kA / k0A0; sequences stand for … in GGGAAUGGAUCCACAUCUACGAAUUC…UUCACUGCAGACUUGACGAAGCUG
In short: as §1

biotinyl-Val-oxazolone = test: self-aminoacylation, catalytic enhancement (BVO) (fold over background); higher = more active; k-Seq, kA / k0A0; sequences stand for … in GGGAAUGGAUCCACAUCUACGAAUUC…UUCACUGCAGACUUGACGAAGCUG
In short: as §1

biotinyl-Leu-oxazolone = test: self-aminoacylation, catalytic enhancement (BLO) (fold over background); higher = more active; k-Seq, kA / k0A0; sequences stand for … in GGGAAUGGAUCCACAUCUACGAAUUC…UUCACUGCAGACUUGACGAAGCUG
In short: as §1

biotinyl-Trp-oxazolone = test: self-aminoacylation, catalytic enhancement (BWO) (fold over background); higher = more active; k-Seq, kA / k0A0; sequences stand for … in GGGAAUGGAUCCACAUCUACGAAUUC…UUCACUGCAGACUUGACGAAGCUG
In short: as §1

| Sequence | self-aminoacylation (biotinyl-Phe-oxazolone) | self-aminoacylation (biotinyl-Ile-oxazolone) | self-aminoacylation (biotinyl-Met-oxazolone) | self-aminoacylation (biotinyl-Val-oxazolone) | self-aminoacylation (biotinyl-Leu-oxazolone) | self-aminoacylation (biotinyl-Trp-oxazolone) |
| --- | --- | --- | --- | --- | --- | --- |
| AUUCACCUGGGUCAGCGGGUG [Fam2.2 aminoacylation ribozyme variant] | 36.7 | 4.33 | 5.26 | 4.26 | 6.66 | 4.72 |
| AUUCACCUGGGUCAUCGGGGG [Fam2.2 aminoacylation ribozyme variant] | 21.4 | 4.25 | 4.26 | 4.1 | 5.65 | 3.71 |
| AUUCACCUGGGUCAUCGGGUG [Fam2.2 aminoacylation ribozyme variant] | 67.8 | 8.95 | 20.2 | 10.4 | 23.2 | 18.2 |
| AUUCACCUGGGUCAUCGGGUU [Fam2.2 aminoacylation ribozyme variant] | 17.4 | 4.39 | 6.89 | 5.13 | 9.06 | 7.09 |
| AUUCACCUGGGUCAUCGGUUG [Fam2.2 aminoacylation ribozyme variant] | 3.76 | 1.25 | 0.904 | 1.44 | 1.4 | 1.62 |
| AUUCACCUGGGUCAUCUGGUG [Fam2.2 aminoacylation ribozyme variant] | 21 | 2.18 | 2.83 | 2 | 3.46 | 2.99 |
| AUUCACCUGUGUCAUCGGGUG [Fam2.2 aminoacylation ribozyme variant] | 28.1 | 5.71 | 10.8 | 6.51 | 15.7 | 8.96 |
| AUUCACCUUGGUCAUAGGGUG [Fam2.2 aminoacylation ribozyme variant] | 1.15 | 0.995 | 1.21 | 1.16 | 1.59 | 1.05 |
| AUUCACCUUGGUCAUCGGUUG [Fam2.2 aminoacylation ribozyme variant] | 0.347 | 0.9 | 0.844 | 1.06 | 0.855 | 0.806 |
| AUUCACCUUGGUGAUCGGGUG [Fam2.2 aminoacylation ribozyme variant] | 23.8 | 3.1 | 3.12 | 3.7 | 4.24 | 5.35 |
| AUUCACGAAGGUCAUCGGGUG [Fam2.2 aminoacylation ribozyme variant] | 89.6 | 5.12 | 10.5 | 6.74 | 11.3 | 8.81 |
| AUUCACGGAGGUCAUCGGGUG [Fam2.2 aminoacylation ribozyme variant] | 65.1 | 4.28 | 7.36 | 6.35 | 9.33 | 7.23 |
| AUUCACGUAAGUCAUCGGGUG [Fam2.2 aminoacylation ribozyme variant] | 148 | 9.9 | 18.3 | 10.4 | 20.4 | 13.3 |
| AUUCACGUAGGACAUCGGGUG [Fam2.2 aminoacylation ribozyme variant] | 24.5 | 3.6 | 5.02 | 4.37 | 5.61 | 5.55 |
| AUUCACGUAGGGCAUCGGGUG [Fam2.2 aminoacylation ribozyme variant] | 43.3 | 3.79 | 4.63 | 5.03 | 6.02 | 5.13 |
| AUUCACGUAGGUCACCGGGUG [Fam2.2 aminoacylation ribozyme variant] | 62.5 | 5.08 | 7.45 | 5.08 | 8.29 | 7.15 |
| AUUCACGUAGGUCAGCGGGUG [Fam2.2 aminoacylation ribozyme variant] | 16.1 | 2.48 | 2.52 | 2.48 | 3.04 | 2.71 |
| AUUCACGUAGGUCAUCGGGGG [Fam2.2 aminoacylation ribozyme variant] | 1.73 | 2.24 | 2.66 | 2.09 | 2.4 | 2.53 |
| AUUCACGUAGGUCAUCGGGUG [Fam2.2 aminoacylation ribozyme variant] | 53.2 | 4.22 | 6.62 | 5.15 | 7.22 | 6.49 |
| AUUCACGUAGGUCAUUGGGUG [Fam2.2 aminoacylation ribozyme variant] | 25.2 | 3.18 | 4.43 | 4 | 5.11 | 4 |
| AUUCACGUAGGUGAUCGGGUG [Fam2.2 aminoacylation ribozyme variant] | 20.3 | 2.91 | 3.98 | 3.52 | 4.12 | 3.33 |
| AUUCACGUAGGUUAUCGGGUG [Fam2.2 aminoacylation ribozyme variant] | 38.9 | 3.34 | 5.38 | 5.09 | 4.91 | 4.68 |

From the supplement of paper PMC9233669
